Target: Flag-tagged PKM2 (pyruvate kinase M2) (human, UniProt P14618-1 1-531, labeled with fluorescence (in the MST assay only))
Experiment: MST

Chain of Flag-tagged PKM2 (pyruvate kinase M2) (P14618 whole entry): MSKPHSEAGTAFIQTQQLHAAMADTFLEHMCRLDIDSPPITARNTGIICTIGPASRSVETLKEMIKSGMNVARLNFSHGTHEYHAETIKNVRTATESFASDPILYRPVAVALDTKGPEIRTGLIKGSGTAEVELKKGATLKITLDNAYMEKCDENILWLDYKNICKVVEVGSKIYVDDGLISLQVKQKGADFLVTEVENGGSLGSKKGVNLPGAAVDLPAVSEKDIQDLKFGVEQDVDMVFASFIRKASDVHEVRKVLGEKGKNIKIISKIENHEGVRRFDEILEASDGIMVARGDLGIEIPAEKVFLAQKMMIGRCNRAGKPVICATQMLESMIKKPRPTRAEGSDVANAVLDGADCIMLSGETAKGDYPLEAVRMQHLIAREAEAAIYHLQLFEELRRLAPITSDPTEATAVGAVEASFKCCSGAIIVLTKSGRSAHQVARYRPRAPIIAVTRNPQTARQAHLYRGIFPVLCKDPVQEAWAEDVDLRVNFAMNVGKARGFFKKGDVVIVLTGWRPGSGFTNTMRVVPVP

Kd: 346 nM
B1: recombinant His-tagged Smad7 (natural protein)
chain: MFRTKRSALVRRLWRSRAPGGEDEEEGAGGGGGGGELRGEGATDSRAHGAGGGGPGRAGCCLGKAVRGAKGHHHPHPPAAGAGAAGGAEADLKALTHSVLKKLKERQLELLLQAVESRGGTRTACLLLPGRLDCRLGPGAPAGAQPAQPPSSYSLPLLLCKVFRWPDLRHSSEVKRLCCCESYGKINPELVCCNPHHLSRLCELESPPPPYSRYPMDFLKPTADCPDAVPSSAETGGTNYLAPGGLSDSQLLLEPGDRSHWCVVAYWEEKTRVGRLYCVQEPSLDIFYDLPQGNGFCLGQLNSDNKSQLVQKVRSKIGCGIQLTREVDGVWVYNRSSYPIFIKSATLDNPDSRTLLVHKVFPGFSIKAFDYEKAYSLQRPNDHEFMQQPWTGFTVQISFVKGWGQCYTRQFISSCPCWLEVIFNSR

— PMC9491720 (Science Advances, 2022)
